# In the Human Domainome abundance scans (Beltran et al. 2025):
# ± gives the uncertainty stated by the source.
# B1: Ankyrin-3, residues 4094 to 4171; numbered along this chain, Q12955 (parent)
# chain: MAIVADHLGLSWTELARELNFSVDEINQIRVENPNSLISQSFMLLKKWVTRDGKNATTDALTSVLTKINRIDIVTLLE
# Variants of: B1
# Assay: abundance fitness (aPCA) (normalised: wild type 0, dead -1); higher = more abundant; growth selection in yeast, the domain comes from the species named
# Conditions: Homo sapiens
row,Variant,abundance fitness
1,MAIVADHLGLSWTELARELNFSVDEINQIRVENPNSLISQSFMLLKCWVTRDGKNATTDALTSVLTKINRIDIVTLLE [K47C],-0.369 ± 0.12
2,MAIVADHLGLSWTELARELNFSVDEINQIRVENPNSLISQSWMLLKKWVTRDGKNATTDALTSVLTKINRIDIVTLLE [F42W],0.022 ± 0.085
3,MAIVADHLGLSWTELARELNFSVDEINQIRVENPNSLISQSYMLLKKWVTRDGKNATTDALTSVLTKINRIDIVTLLE [F42Y],0.023 ± 0.1
4,MAIVADHLGLSWTELARELNFSVDEINQIRVENPNSLISQSVMLLKKWVTRDGKNATTDALTSVLTKINRIDIVTLLE [F42V],0.042 ± 0.056
5,MAIVADHLGLSWTELARELNFSVDEINQIRVENPNSLISQSSMLLKKWVTRDGKNATTDALTSVLTKINRIDIVTLLE [F42S],0.174 ± 0.056
6,MAIVADHLGLSWTELARELNFSVDEINQIRVENPNSLISQSTMLLKKWVTRDGKNATTDALTSVLTKINRIDIVTLLE [F42T],0.086 ± 0.087
7,MAIVADHLGLSWTELARELNFSVDEINQIRVENPNSLISQSQMLLKKWVTRDGKNATTDALTSVLTKINRIDIVTLLE [F42Q],0.074 ± 0.092
8,MAIVADHLGLSWTELARELNFSVDEINQIRVENPNSLISQSRMLLKKWVTRDGKNATTDALTSVLTKINRIDIVTLLE [F42R],0.188 ± 0.052
9,MAIVADHLGLSWTELARELNFSVDEINQIRVENPNSLISQSFFLLKKWVTRDGKNATTDALTSVLTKINRIDIVTLLE [M43F],-0.265 ± 0.18
10,MAIVADHLGLSWTELARELNFSVDEINQIRVENPNSLISQSFKLLKKWVTRDGKNATTDALTSVLTKINRIDIVTLLE [M43K],-0.185 ± 0.16
11,MAIVADHLGLSWTELARELNFSVDEINQIRVENPNSLISQSFGLLKKWVTRDGKNATTDALTSVLTKINRIDIVTLLE [M43G],0.02 ± 0.048
12,MAIVADHLGLSWTELARELNFSVDEINQIRVENPNSLISQSFSLLKKWVTRDGKNATTDALTSVLTKINRIDIVTLLE [M43S],0.005 ± 0.054
13,MAIVADHLGLSWTELARELNFSVDEINQIRVENPNSLISQSFALLKKWVTRDGKNATTDALTSVLTKINRIDIVTLLE [M43A],0.047 ± 0.065
14,MAIVADHLGLSWTELARELNFSVDEINQIRVENPNSLISQSFCLLKKWVTRDGKNATTDALTSVLTKINRIDIVTLLE [M43C],0.1 ± 0.11
15,MAIVADHLGLSWTELARELNFSVDEINQIRVENPNSLISQSFLLLKKWVTRDGKNATTDALTSVLTKINRIDIVTLLE [M43L],-0.152 ± 0.054
16,MAIVADHLGLSWTELARELNFSVDEINQIRVENPNSLISQSFVLLKKWVTRDGKNATTDALTSVLTKINRIDIVTLLE [M43V],-0.074 ± 0.057
17,MAIVADHLGLSWTELARELNFSVDEINQIRVENPNSLISQSFRLLKKWVTRDGKNATTDALTSVLTKINRIDIVTLLE [M43R],-0.128 ± 0.045
18,MAIVADHLGLSWTELARELNFSVDEINQIRVENPNSLISQSFPLLKKWVTRDGKNATTDALTSVLTKINRIDIVTLLE [M43P],-0.892 ± 0.14

row,Variant,abundance fitness
1,MAIVADHLGLSWTELARELNFSVDEINQIRVENPNSLISQSFILLKKWVTRDGKNATTDALTSVLTKINRIDIVTLLE [M43I],-0.431 ± 0.17
2,MAIVADHLGLSWTELARELNFSVDEINQIRVENPNSLISQSFHLLKKWVTRDGKNATTDALTSVLTKINRIDIVTLLE [M43H],0.014 ± 0.11
3,MAIVADHLGLSWTELARELNFSVDEINQIRVENPNSLISQSFDLLKKWVTRDGKNATTDALTSVLTKINRIDIVTLLE [M43D],0.028 ± 0.12
4,MAIVADHLGLSWTELARELNFSVDEINQIRVENPNSLISQSFWLLKKWVTRDGKNATTDALTSVLTKINRIDIVTLLE [M43W],-0.168 ± 0.073
5,MAIVADHLGLSWTELARELNFSVDEINQIRVENPNSLISQSFTLLKKWVTRDGKNATTDALTSVLTKINRIDIVTLLE [M43T],0.033 ± 0.071
6,MAIVADHLGLSWTELARELNFSVDEINQIRVENPNSLISQSFELLKKWVTRDGKNATTDALTSVLTKINRIDIVTLLE [M43E],0.056 ± 0.081
7,MAIVADHLGLSWTELARELNFSVDEINQIRVENPNSLISQSFMLLFKWVTRDGKNATTDALTSVLTKINRIDIVTLLE [K46F],-0.762 ± 0.3
8,MAIVADHLGLSWTELARELNFSVDEINQIRVENPNSLISQSFMLLEKWVTRDGKNATTDALTSVLTKINRIDIVTLLE [K46E],-0.013 ± 0.14
9,MAIVADHLGLSWTELARELNFSVDEINQIRVENPNSLISQSFMLLGKWVTRDGKNATTDALTSVLTKINRIDIVTLLE [K46G],-0.337 ± 0.049
10,MAIVADHLGLSWTELARELNFSVDEINQIRVENPNSLISQSFMLLHKWVTRDGKNATTDALTSVLTKINRIDIVTLLE [K46H],-0.195 ± 0.16
11,MAIVADHLGLSWTELARELNFSVDEINQIRVENPNSLISQSFMLLLKWVTRDGKNATTDALTSVLTKINRIDIVTLLE [K46L],-0.377 ± 0.061
12,MAIVADHLGLSWTELARELNFSVDEINQIRVENPNSLISQSFMLLRKWVTRDGKNATTDALTSVLTKINRIDIVTLLE [K46R],-0.018 ± 0.041
13,MAIVADHLGLSWTELARELNFSVDEINQIRVENPNSLISQSFMLLCKWVTRDGKNATTDALTSVLTKINRIDIVTLLE [K46C],-0.432 ± 0.079
14,MAIVADHLGLSWTELARELNFSVDEINQIRVENPNSLISQSFMLLIKWVTRDGKNATTDALTSVLTKINRIDIVTLLE [K46I],-0.581 ± 0.17
15,MAIVADHLGLSWTELARELNFSVDEINQIRVENPNSLISQSFMLLSKWVTRDGKNATTDALTSVLTKINRIDIVTLLE [K46S],-0.024 ± 0.052
16,MAIVADHLGLSWTELARELNFSVDEINQIRVENPNSLISQSFMLLQKWVTRDGKNATTDALTSVLTKINRIDIVTLLE [K46Q],0.124 ± 0.074
17,MAIVADHLGLSWTELARELNFSVDEINQIRVENPNSLISQSFMLLMKWVTRDGKNATTDALTSVLTKINRIDIVTLLE [K46M],-0.204 ± 0.1
